In patent US20220204643A1 (published 2022):
Each block holds one binder with its values, some of them ahead of it.

What was measured:
[1] = molecular target: T1, olfactory receptor family 6 subfamily Q member 1 (gene/pseudogene) (human, UniProt Q8NGQ2 1-317)
T1 construct: HuProt array protein, full-length recombinant from yeast; also called OR6Q1
T1 sequence: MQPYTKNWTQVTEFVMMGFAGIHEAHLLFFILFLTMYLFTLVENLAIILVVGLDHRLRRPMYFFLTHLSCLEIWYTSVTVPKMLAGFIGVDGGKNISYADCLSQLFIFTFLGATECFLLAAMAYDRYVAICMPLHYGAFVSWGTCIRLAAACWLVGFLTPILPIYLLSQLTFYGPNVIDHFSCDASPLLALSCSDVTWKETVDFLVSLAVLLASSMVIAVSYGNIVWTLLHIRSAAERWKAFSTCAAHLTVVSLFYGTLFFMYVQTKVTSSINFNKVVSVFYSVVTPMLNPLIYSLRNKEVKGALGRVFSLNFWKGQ

[2] = molecular target: T2, kelch like family member 40 (human, UniProt Q2TBA0 1-621)
T2 construct: HuProt array protein, full-length recombinant from yeast; also called KLHL40
T2 sequence: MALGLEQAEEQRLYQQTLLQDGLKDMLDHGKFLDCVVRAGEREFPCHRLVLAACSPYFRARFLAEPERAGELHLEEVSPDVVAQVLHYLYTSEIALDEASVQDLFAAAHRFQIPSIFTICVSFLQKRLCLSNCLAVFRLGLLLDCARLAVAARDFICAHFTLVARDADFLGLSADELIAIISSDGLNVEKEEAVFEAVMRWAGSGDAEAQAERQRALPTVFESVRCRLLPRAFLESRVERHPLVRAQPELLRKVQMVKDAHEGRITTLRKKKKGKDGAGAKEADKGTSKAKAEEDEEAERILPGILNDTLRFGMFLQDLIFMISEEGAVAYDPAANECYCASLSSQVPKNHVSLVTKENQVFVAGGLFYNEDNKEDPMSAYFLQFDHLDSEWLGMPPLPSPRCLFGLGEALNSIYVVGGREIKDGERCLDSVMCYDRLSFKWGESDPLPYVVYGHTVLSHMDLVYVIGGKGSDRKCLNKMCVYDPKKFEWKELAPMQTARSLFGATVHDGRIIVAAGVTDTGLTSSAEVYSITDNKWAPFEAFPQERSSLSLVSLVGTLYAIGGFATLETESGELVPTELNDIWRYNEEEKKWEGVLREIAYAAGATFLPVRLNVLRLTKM

[3] = molecular target: T3, membrane palmitoylated protein 2, transcript variant 3 (human, UniProt Q14168 1-576)
T3 construct: HuProt array protein, full-length recombinant from yeast; also called MPP2
T3 sequence: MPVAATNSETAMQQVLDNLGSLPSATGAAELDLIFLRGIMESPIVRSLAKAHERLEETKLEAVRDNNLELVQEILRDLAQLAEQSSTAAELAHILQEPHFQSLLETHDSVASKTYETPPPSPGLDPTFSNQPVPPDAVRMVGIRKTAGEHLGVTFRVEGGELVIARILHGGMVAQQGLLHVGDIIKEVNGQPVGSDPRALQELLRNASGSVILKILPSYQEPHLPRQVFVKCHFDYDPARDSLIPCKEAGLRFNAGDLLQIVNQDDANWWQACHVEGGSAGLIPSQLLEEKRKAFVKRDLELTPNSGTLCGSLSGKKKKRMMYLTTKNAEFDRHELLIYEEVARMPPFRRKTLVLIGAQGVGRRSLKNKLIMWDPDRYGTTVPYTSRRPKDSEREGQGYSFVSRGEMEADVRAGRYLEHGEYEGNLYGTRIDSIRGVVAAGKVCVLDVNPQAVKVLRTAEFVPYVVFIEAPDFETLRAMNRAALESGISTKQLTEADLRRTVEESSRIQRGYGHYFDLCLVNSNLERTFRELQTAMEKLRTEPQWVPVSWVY

[4] = molecular target: T4, butyrophilin subfamily 1 member A1 (human, UniProt Q13410 27-526); assay: protein array
T4 construct: on protein array; also called BTN1A1
T4 sequence: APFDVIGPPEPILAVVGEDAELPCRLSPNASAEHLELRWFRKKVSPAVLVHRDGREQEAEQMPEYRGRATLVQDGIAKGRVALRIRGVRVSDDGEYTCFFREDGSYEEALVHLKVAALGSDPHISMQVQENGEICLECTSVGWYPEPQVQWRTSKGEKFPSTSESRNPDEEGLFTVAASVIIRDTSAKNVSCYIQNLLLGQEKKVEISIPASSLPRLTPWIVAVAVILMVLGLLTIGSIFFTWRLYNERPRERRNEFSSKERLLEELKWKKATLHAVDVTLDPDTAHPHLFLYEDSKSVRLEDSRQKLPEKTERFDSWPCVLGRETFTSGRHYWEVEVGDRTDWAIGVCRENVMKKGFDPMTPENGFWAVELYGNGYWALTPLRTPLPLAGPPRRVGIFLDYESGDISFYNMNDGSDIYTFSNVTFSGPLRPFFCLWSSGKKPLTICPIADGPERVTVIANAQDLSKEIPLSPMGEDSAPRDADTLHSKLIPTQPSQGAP

[5] = molecular target: T5, microfibril associated protein 3, transcript variant 3 (human, UniProt P55082 19-362)
T5 construct: HuProt array protein, full-length recombinant from yeast; also called MFAP3

cancer/testis antigen 1A = molecular target: T6, cancer/testis antigen 1A (human, UniProt P78358 1-180)
T6 construct: HuProt array protein, full-length recombinant from yeast; also called CTAG1A

[6] = molecular target: T7, zinc finger with KRAB and SCAN domains 4, transcript variant X1 (human, UniProt Q969J2 1-545)
T7 construct: HuProt array protein, full-length recombinant from yeast; also called ZKSCAN4
T7 sequence: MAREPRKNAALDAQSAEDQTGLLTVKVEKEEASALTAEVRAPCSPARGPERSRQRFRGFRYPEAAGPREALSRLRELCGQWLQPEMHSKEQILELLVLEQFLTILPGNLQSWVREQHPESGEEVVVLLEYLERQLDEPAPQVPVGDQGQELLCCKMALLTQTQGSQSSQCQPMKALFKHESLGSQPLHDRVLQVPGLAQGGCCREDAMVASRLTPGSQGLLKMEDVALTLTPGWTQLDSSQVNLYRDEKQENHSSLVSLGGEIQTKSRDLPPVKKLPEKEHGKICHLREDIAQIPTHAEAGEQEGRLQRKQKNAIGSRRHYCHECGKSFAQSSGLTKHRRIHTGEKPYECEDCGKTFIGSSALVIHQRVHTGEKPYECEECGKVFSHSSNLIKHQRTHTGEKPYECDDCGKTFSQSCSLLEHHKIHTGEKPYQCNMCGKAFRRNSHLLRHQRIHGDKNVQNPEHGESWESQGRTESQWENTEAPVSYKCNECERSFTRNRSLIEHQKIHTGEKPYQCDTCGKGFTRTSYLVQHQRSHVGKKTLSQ

[7] = molecular target: T8, 5-hydroxytryptamine receptor 1E (human, UniProt P28566 1-365)
T8 construct: HuProt array protein, full-length recombinant from yeast; also called HTR1E

[8] = molecular target: T9, actinin alpha 1, transcript variant 2 (human, UniProt P12814 1-892)
T9 construct: HuProt array protein, full-length recombinant from yeast; also called ACTN1

[9] = molecular target: T10, dual specificity phosphatase 12 (human, UniProt Q9UNI6 1-340)
T10 construct: HuProt array protein, full-length recombinant from yeast; also called DUSP12

[10] = molecular target: T11, glucuronidase, beta pseudogene (human)
T11 construct: HuProt array protein; labelled _frag; pseudogene product; also called BC025996.2_frag
T11 chain: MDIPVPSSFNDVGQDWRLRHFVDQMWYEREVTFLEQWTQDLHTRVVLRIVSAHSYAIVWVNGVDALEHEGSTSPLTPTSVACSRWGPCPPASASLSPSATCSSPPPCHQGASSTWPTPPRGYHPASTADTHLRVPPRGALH

T10 sequence (Q9UNI6 whole entry): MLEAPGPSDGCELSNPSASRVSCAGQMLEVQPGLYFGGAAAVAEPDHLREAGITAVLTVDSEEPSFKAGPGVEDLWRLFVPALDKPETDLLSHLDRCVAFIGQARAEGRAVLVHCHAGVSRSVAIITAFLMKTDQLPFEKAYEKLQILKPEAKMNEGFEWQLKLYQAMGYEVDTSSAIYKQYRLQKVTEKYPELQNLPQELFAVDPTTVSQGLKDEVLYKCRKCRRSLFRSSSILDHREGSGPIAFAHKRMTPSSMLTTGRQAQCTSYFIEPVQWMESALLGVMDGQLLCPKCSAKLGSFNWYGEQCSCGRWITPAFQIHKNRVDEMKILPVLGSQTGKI
T6 sequence (P78358 whole entry): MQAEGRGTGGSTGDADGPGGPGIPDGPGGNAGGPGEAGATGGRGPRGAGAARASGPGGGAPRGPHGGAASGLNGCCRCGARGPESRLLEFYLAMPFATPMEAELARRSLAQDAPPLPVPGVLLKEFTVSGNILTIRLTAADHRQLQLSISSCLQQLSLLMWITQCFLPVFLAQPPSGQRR
T5 sequence (P55082 19-362 limits assumed, change not shown): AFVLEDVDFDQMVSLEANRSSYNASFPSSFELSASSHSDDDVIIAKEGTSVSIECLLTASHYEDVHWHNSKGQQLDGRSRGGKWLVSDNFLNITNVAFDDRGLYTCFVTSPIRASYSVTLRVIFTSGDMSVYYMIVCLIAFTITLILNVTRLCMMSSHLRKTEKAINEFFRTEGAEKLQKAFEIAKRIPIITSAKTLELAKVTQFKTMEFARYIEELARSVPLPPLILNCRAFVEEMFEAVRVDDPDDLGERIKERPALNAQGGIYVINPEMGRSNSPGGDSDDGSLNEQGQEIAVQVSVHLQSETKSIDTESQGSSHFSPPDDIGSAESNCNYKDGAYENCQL
T8 sequence (P28566 whole entry): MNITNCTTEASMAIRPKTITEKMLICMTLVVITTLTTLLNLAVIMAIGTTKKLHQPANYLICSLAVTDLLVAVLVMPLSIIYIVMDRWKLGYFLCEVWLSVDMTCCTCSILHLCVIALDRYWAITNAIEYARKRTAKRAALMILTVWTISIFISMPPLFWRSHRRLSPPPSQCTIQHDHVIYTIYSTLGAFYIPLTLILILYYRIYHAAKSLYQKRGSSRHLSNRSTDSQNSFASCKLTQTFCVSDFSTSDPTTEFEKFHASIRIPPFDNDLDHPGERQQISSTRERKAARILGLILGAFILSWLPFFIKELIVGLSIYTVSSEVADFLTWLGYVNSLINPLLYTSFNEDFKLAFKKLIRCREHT
T9 sequence (P12814 whole entry, change not shown): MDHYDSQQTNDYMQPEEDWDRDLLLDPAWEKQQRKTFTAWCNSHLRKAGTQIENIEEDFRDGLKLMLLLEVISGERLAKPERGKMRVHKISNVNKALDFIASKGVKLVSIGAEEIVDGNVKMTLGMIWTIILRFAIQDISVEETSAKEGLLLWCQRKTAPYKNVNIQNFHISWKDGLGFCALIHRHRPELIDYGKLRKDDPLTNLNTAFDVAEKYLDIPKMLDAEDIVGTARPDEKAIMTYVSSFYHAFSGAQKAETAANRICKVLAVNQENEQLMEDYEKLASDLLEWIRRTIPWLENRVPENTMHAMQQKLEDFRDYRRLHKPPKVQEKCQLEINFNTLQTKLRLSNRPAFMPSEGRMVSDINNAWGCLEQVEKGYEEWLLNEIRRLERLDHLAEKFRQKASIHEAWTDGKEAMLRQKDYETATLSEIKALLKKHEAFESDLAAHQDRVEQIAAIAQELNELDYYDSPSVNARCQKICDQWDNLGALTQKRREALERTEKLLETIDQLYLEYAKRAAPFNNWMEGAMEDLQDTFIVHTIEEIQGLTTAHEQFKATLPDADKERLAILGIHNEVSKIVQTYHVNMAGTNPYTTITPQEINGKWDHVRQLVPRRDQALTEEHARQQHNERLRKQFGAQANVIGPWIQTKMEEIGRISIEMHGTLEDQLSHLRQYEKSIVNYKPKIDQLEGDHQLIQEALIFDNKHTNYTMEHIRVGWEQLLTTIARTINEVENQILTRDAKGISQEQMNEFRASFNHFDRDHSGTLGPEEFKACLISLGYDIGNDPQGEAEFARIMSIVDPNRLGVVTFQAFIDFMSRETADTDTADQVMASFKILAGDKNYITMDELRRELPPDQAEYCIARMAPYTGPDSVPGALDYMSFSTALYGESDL

B1: TBLA1010 (antibody, V domains shown)
VH: EVQLVESGGGLVQPGRSLRLSCAASGFPFGDYAMHWVRQAPGKGLEWVSGIGWDSGGIGYADSVKGRFTISRDIAKNSLYLEINSLRPDDTALYYCAKAAATLPYFRFAMDVWGQGTPVTVSS
VL: EIVLTQSPGTLSLSPGERATLSCRASQSVSSSYLAWYQQKPGQAPRLLIFGASTRASGIPDRFSGRGSGTEFTLTISRLEPEDFAVYYCQQYDSSPFTFGPGTKVEIKR
notes: detected with anti-human IgG Fc
binding result [1]: binds

B2: TBRE1012 (antibody, V domains shown)
VH: QVQLQESGPGLVKPTQTLSLTCTVSGGSISSGSYYWNWIRQPAGKGLEWIGNIYTSGNTDYNPSLKSRVTISLDTSKNQVSLNLTSVTAADTAVYYCATTPSSSWYWYFDPWGQGTLVTVSS
VL: DLQMTQSPSSLSASIGDRVTITCRASQSISTYFNWYQQKPGKAPKLLIYAASSLQSGVPSRFSGSGSGTDFTLTITSLQPEDFATYYCQQTYSNPWTFGQGTKVDFKR
notes: as for B1
binding result [2]: binds
binding result [3]: binds

B3: TBRE1013 (antibody, V domains shown)
VH: EVQLVESGGGLVKPGGSLRLSCAGSGFSFSSYSMNWVRQAPGKGLEWVSSISSKSSSKNYIDSVKNRFIISRDNAKNSLYLQMNSLRAEDTAVYYCARDLELIIAAGAPLDHWGQGTLVTVSS
VL: DIQMTQSPSSLSASVGDRVTITCRASQSIKNYVNWYQQKPGEAPNLLIFAASNLQSGVPSRFTGSGSGTDFSLTISSLQPEDFAAYYCQQTYSHPRTFGQGTRVEIKR
notes: VH/VL only
binding result [4]: binds

B4: TBRE1002 (antibody, V domains shown)
VH: QVQLVESGGGVVQPGGSLRLSCGASGFAFSSNGMHWVRQAPGKGLEWVAFIHYDGRNKHYTDSVKGRFAISVDDSKTTLYLQMSSLKTEDTAVYYCVKDSRVTGQSSGYIFDSWGQGTLVTVSS
VL: ETVMTQSPATLSVSPGDRATLSCRASQNVNFNLAWYQQKPGQAPRLLIYDASTRATGIPARFSGSASGTEFTLTINSLQSEDFAVYYCQQYNNWWTFGQGTKLEIKR
notes: as for B1
binding result [5]: binds

B5: TBLA1012 (antibody, V domains shown)
VH: LLQLVESGGGVVQPGRSLRLSCAASGFTFTRHGFHWVRQAPGKGLEWVAVISSDGRKIHYTDSVKGRFVISRDDSDNTVYLHMNSLRLGDTALYYCARDSGGTPGPYWGQGTLVTVSS
VL: DVVMTQSPLSLPVTLGQPASISCRSSQSLVHSDGNTYLNWFQQRPGQSPRRLIYMVSNRDSGVPDRFSGSGSGTDFTLKISRVEAEDVGVYYCLQGTHWPPTIGQGTKVEIE
notes: as for B1
binding result (cancer/testis antigen 1A): binds

The next lines start with the values.

binding result [6]: binds
B6: TBRE1009 (antibody, V domains shown)
VH: EVQLVESGGGLVKPGGSLRLSCVGSGFTFSNYSMNWVRQAPGRGLEWVSSISWGSSYINYADSVKGRFTISRDNAKNSLYLQMTSLTAEDTAVYYCACRRIYQGFDPWGQGTLVT
VL: DIQMTQSPSSLSASVGDRVTISCRASHNINTYLNWYQHKPGKAPKIVIYGASSLQSGVPSRFSGSGSGTDFSLTISSLQREDFATYFCQQSFNTVLTFGGGTRVDI
notes: as for B1

binding result [7]: binds
B7: TBLA1013 (antibody, V domains shown)
VH: EVQLLESGGGLVQPGGSLTLSCVGSRFTFSSYAMNWVRQSPGRGLEWVASISATTGSTYYTDSVEGRFTISRDNSRDTLYLQMNSLRADDTALYYCVRSFVGAVPAYPNFDFWGPGTLVTVSS
VL: PSGLTQPPSASGTPGQRVTMSCSGSSSNIGRNYVYWYQQLPGAAPKLLIYRDNQRPSGVPDRFSGSKSGTSASLAISGLRSEDEADYYCAAWDDNVSGPGFGAGTRLTVLG
notes: as for B1

binding result [8]: binds
binding result [9]: binds
B8: TBRE1007 (antibody, V domains shown)
VH: QVQLQESGPGLVRPSETLSLTCDVSGYLISSGYYWGWVRQPPGKGLEWIGSVYHSGNAYYNPSLKGRVTMSVDTSKNQFSLKLTSVAAEDTAVYYCAREHRSGYQRYWGQGTLVTVSS
VL: IQMTQSPSSLSASVGDRVTITCRASQAIANSLAWYQQRPGKAPKLLIYAASSLESGVPSRFSGSGSGTDYTLTISSLQPEDFATYYCQQYYINPRTFGQGTKVEIKR
notes: as for B1

binding result [10]: binds
B9: TBRE1006 (antibody, V domains shown)
VH: QVQLVQSGAEVKKPGASVKVSCKASGYIFTSYAIHWVRQAPGQRLEWMGWINAGNGNTKYSQKFQGRVTITRDTSANTAYMELSSLRSEDTAIYYCARDIAVAITNYFGSWGQGTLVTVSS
VL: EIVLTQSPATLSLSPGERATLSCRASQSVGSYLAWYQQKPGQAPRLLIYDASNRATGIPARFSGSGSGTDFTLTISSLEPEDFAVYYCQQGSNWLALTFGGGTKVEIKR
notes: as for B1
